This note sets out measurements from paper PMC8563363.

Assay [1] addresses trimeric cohesin (SMC1, SMC3-FLAG, SCC1(TEV)-Halo-His14) (human) (UniProt Q14683). In words: high-speed atomic force microscopy.
The target of assay [2] is NIPBL (human) (UniProt Q6KC79). The assay can be described thus: high-speed atomic force microscopy.

With “NIPBL (from UniProt Q6KC79 1-2804) (natural protein)”, the stoichiometry N in assay [1] was found to be 1.

The substance NIPBL, Q6KC79 1-2804 displayed a stoichiometry N in assay [2] of 2.
